Test results from PMC8287954.
Changes are numbered by the printed parent chain. Numbers in names are those of the source. Values belong to the binder of their own block, whether it stands above or below them.

How the values were obtained:
Assay in all cases: SEC-MALS
[1] = target: hsSMNΔ5(T274I)•Gemin2, Q16637;O14893; conditions: chain shown with the change; 20°C; peak concentration 0.5 µM; parent: 231 (188-454)
[2] = target: hsSMNΔ5(G279V)•Gemin2, Q16637;O14893; conditions: chain shown with the change; 20°C; peak concentration 0.3 µM; parent: 231 (188-454)
[3] = target: hsSMNΔ5(H273R)•Gemin2, Q16637;O14893; conditions: chain shown with the change; 20°C; peak concentration 0.5 µM; parent: 231 (188-454)

other: SEC-MALS Mw [1]: 198
B1: hsSMNΔ5•Gemin2 complex, O14893 T274I (protein)
chain 1: MAMSSGGSGGGVPEQEDSVLFRRGTGQSDDSDIWDDTALIKAYDKAVASFKHALKNGDICETSGKPKTTPKRKPAKKNKSQKKNTAASLQQWKVGDKCSAIWSEDGCIYPATIASIDFKRETCVVVYTGYGNREEQNLSDLLSPICEVANNIEQNAQENENESQVSTDESENSRSPGNKSDNIKPKSAPWNSFLPPPPPMPGPRLGPGKIIPPPPPICPDSLDDADALGSMLISWYMSGYHIGYYMGFRQNQKEGRCSHSLN
chain 2: MAWVPAESAVEELMPRLLPVEPCDLTEGFDPSVPPRTPQEYLRRVQIEAAQCPDVVVAQIDPKKLKRKQSVNISLSGCQPAPEGYSPTLQWQQQQVAQFSTVRQNVNKHRSHWKSQQLDSNVTMPKSEDEEGWKKFCLGEKLCADGAVGPATNESPGIDYVQIGFPPLLSIVSRMNQATVTSVLEYLSNWFGERDFTPELGRWLYALLACLEKPLLPEAHSLIRQLARRCSEVRLLVDSKDDERVPALNLLICLVSRYFDQRDLADEPS

other: SEC-MALS Mw [2]: 384
B2: hsSMNΔ5•Gemin2 complex, O14893 G279V (protein)
chain 1: B1 chain 1 with I242T, G247V
chain 2: B1 chain 2

other: SEC-MALS Mw [3]: 266
B3: hsSMNΔ5•Gemin2 complex, O14893 H273R (protein)
chain 1: B1 chain 1 with H241R, I242T
chain 2: B1 chain 2
